Source: paper PMC13499124
pKd: −log10 of the molar value.

Tests used:
Test in all cases: MST; labelled JIP3/4 fragment (Blue-NHS dye) constant at 20 nM, KIF5B fragment titrated 120 pM to 4 uM (up to 38.2 uM when needed); 50 mM Tris pH 8.0, 200 mM NaCl, 10 mM MgCl2, 0.05% Tween 20; room temperature; Monolith NT.115, premium capillaries, MST-on 0.5-1.5 s; 1:1 Kd fit; three replicates; the paper calls its affinities relative measurements
JIP4-N-RH1-lz3-G40H-R41C = JIP4-N-RH1-lz3-G40H-R41C (UniProt O60271)
[1] = target: JIP4-N^JIP3-RH1-lz3 chimera (JIP4 variant incorporating the N-terminus of JIP3) (mouse | not stated)
[2] = target: JIP3-N^JIP4-RH1-lz3 chimera (JIP3 variant incorporating the N-terminus of JIP4) (not stated | mouse)

Chain of KIF5B-CC3b-CC4-dt fragment (P33176 771-963): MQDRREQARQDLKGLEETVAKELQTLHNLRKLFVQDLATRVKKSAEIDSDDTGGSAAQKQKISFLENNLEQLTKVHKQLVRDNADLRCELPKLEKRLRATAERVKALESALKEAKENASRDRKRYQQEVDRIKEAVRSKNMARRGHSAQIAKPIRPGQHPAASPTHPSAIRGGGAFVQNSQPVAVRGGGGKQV
Chain of JIP4-N-RH1-lz3-G40H-R41C (O60271 whole entry G40H/R41C): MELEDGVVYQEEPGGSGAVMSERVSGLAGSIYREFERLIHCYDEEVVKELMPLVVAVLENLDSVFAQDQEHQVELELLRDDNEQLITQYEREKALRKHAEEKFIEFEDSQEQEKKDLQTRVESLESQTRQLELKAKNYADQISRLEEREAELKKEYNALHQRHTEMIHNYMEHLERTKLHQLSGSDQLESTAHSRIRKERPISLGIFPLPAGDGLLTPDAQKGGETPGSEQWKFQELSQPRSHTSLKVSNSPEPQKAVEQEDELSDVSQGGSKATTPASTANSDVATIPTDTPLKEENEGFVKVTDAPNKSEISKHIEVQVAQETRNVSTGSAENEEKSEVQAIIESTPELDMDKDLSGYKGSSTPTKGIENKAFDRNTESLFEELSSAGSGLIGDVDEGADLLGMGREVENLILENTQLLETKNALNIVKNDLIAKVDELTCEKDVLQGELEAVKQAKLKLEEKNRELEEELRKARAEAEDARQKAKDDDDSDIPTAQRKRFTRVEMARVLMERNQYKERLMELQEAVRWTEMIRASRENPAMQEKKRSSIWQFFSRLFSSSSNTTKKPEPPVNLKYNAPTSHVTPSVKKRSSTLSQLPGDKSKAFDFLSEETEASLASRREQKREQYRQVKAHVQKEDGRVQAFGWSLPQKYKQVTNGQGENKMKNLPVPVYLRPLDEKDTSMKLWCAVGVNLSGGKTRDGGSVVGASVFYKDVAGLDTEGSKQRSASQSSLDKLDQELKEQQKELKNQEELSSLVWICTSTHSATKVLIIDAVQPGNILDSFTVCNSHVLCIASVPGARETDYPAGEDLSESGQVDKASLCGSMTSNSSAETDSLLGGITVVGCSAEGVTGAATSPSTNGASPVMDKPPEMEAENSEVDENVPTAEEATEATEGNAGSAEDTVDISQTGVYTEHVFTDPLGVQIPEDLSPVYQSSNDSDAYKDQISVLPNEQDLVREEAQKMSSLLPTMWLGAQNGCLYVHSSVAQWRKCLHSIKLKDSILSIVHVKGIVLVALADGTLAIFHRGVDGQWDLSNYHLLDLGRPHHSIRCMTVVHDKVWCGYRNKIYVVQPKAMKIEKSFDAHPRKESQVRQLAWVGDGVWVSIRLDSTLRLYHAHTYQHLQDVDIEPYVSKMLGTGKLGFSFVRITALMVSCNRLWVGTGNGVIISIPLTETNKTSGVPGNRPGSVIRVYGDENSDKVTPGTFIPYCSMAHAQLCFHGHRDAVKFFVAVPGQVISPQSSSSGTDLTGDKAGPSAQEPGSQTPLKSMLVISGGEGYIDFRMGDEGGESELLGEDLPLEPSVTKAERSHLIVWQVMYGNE

KIF5B-CC3b-CC4-dt fragment (from UniProt P33176 771-963) (domain or fragment)
pKd (JIP4-N-RH1-lz3-G40H-R41C): 6.88 | pKd [1]: 6.61 | pKd [2]: 7.53
